According to publication PMC12668046, “Single cis‐elements in brassinosteroid‐induced upregulated genes are insufficient to recruit both redox states of the BIL1/BZR1 DNA‐binding domain” (Febs Letters, 2025):

B1: unfused BIL1/BZR1 DBD (21–104), pretreated with the reductant DTT (domain or fragment, A. thaliana, UniProt Q8S307 21-104, looked up)
chain: ARRKPSWRERENNRRRERRRRAVAAKIYTGLRAQGDYNLPKHCDNNEVLKALCVEAGWVVEEDGTTYRKGCKPLPGEIAGTSSR
notes: also called reduced BIL1/BZR1 DBD; source: expressed and purified as described previously [9, 14, 21]; SEC into reductant-free buffer
B2: mutated maltose-binding protein (mMBP)-Ala-BIL1/BZR1 DBD (amino acids 21–104) (domain or fragment, A. thaliana, UniProt Q8S307 21-104, looked up)
chain: B1 chain
notes: protomers 1 and 2 are chains C and D of the deposited entries; Co-crystallised with E-box DNA fragments; also called mMBP-fused BIL1/BZR1 DBD; mMBP-BIL1/BZR1 (21–104); source: expressed and purified as described previously [9, 14, 21]; SEC

Assays:
[1] = target: the molecule itself; test: SEC; unfused BIL1/BZR1 DBD pretreated with DTT; Superdex 75 10/300 GL Increase; reductant-free buffer 20 mM Tris/HCl pH 8.0, 1 M NaCl, 10% glycerol
[2] = target: the molecule itself; test: crystal structure; mMBP-Ala-BIL1/BZR1 DBD co-crystallised with DNA fragments containing E-box variants (CATATG or CAGCTG); sitting drop, 293 K, 50 mM sodium cacodylate pH 6.5, 0.2 M KCl, 0.01 M MgCl2, 10% PEG 4000

Protein | binding result [1] | binding result [2]
B1 | binds | 
B2 |  | binds
